In IntAct's records for PubMed 15350218:

B1: Synaptotagmin-2 (Rattus norvegicus (Rat)), P29101 (parent)
chain: MRNIFKRNQEPIVAPATTTATMPLAPAAPADNSTESTGTGESQEDMFAKLKDKFFNEINKIPLPPWALIAMAVVAGLLLLTCCFCICKKCCCKKKKNKKEKGKGMKNAMNMKDMKGGQDDDDAETGLTEGEGEGEEEKEPENLGKLQFSLDYDFQANQLTVGVLQAAELPALDMGGTSDPYVKVFLLPDKKKKYETKVHRKTLNPAFNETFTFKVPYQELGGKTLVMAIYDFDRFSKHDIIGEVKVPMNTVDLGQPIEEWRDLQGGEKEEPEKLGDICTSLRYVPTAGKLTVCILEAKNLKKMDVGGLSDPYVKIHLMQNGKRLKKKKTTVKKKTLNPYFNESFSFEIPFEQIQKVQVVVTVLDYDKLGKNEAIGKIFVGSNATGTELRHWSDMLANPRRPIAQWHSLKPEEEVDALLGKNK

Variants of: B1
Conditions: with wnk1_rat Wnk1, Q9JIH7
Chain of wnk1_rat Wnk1, Q9JIH7 (Q9JIH7 whole entry): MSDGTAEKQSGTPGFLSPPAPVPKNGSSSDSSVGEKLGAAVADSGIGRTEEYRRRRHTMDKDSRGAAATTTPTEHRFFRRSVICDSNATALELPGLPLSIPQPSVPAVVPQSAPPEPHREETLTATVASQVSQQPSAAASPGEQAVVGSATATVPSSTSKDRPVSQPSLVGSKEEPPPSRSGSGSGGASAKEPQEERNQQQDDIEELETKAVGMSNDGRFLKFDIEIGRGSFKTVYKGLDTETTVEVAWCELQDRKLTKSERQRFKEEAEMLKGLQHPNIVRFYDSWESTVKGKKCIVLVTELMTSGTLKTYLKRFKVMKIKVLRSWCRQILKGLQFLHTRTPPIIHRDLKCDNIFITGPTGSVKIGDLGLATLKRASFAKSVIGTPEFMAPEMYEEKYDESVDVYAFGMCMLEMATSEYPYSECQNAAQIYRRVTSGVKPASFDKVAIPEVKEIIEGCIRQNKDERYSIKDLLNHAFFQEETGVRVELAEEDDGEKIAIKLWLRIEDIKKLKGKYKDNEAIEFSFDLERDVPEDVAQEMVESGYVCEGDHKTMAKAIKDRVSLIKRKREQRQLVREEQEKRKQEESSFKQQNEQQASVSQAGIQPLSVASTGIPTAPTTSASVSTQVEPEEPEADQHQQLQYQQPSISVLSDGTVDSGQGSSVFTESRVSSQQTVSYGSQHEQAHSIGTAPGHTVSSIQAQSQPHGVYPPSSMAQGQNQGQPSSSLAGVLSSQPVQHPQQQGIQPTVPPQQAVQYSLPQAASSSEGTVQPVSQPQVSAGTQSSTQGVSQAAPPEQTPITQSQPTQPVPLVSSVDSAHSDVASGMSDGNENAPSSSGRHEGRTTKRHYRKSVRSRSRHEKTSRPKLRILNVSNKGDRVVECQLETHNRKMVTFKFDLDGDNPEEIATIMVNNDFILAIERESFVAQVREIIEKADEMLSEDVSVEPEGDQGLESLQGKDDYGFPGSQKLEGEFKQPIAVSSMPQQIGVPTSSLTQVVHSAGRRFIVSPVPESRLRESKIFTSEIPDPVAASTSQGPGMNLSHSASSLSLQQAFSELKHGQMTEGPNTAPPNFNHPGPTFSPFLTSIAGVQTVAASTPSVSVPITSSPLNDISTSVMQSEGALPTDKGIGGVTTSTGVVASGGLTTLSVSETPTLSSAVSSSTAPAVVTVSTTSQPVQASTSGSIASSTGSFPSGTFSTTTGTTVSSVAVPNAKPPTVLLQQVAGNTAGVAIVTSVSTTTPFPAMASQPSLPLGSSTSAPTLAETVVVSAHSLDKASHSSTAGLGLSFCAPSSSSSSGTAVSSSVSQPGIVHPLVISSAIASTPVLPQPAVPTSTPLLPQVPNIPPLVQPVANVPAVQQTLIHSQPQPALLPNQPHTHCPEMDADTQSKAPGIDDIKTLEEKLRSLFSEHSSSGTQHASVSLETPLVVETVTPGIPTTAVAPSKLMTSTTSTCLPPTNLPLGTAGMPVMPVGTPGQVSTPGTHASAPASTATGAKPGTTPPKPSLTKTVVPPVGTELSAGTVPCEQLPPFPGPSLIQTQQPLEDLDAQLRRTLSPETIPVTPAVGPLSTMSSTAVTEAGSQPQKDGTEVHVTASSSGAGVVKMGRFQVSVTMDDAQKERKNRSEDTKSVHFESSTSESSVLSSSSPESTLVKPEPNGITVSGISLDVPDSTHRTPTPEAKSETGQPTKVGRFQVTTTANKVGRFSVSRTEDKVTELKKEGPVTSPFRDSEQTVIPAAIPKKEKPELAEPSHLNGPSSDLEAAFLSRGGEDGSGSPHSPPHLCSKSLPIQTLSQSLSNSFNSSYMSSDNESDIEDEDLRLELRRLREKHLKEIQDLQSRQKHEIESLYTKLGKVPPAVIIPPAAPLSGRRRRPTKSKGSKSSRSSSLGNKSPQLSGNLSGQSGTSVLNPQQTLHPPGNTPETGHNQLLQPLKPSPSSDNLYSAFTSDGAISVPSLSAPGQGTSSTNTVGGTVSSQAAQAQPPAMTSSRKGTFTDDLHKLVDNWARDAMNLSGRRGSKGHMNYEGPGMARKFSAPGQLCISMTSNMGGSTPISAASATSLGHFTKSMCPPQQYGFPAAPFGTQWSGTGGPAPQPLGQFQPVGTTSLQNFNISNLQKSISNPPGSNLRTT

Variant	effect of a mutation on the interaction
MRNIFKRNQEPIVAPATTTATMPLAPAAPADNSTESTGTGESQEDMFAKLKDKFFNEINKIPLPPWALIAMAVVAGLLLLTCCFCICKKCCCKKKKNKKEKGKGMKNAMNMKDMKGGQDDDDAETGLTEGEGEGEEEKEPENLGKLQFSLDYDFQANQLTVGVLQAAELPALDMGGTSDPYVKVFLLPDKKKKYETKVHRKTLNPAFNETFTFKVPYQELGGKTLVMAIYDFDRFSKHDIIGEVKVPMNTVDLGQPIEEWRDLQGGEKEEPEKLGDICTSLRYVPTAGKLTVCILEAKNLKKMDVGGLSNPYVKIHLMQNGKRLKKKKTTVKKKTLNPYFNESFSFEIPFEQIQKVQVVVTVLDYDKLGKNEAIGKIFVGSNATGTELRHWSDMLANPRRPIAQWHSLKPEEEVDALLGKNK [D310N]	decreasing interaction

Variants of: B1
Conditions: with wnk1_rat Wnk1, Q9JIH7
Remark: another data set of the same source

Variant	effect of a mutation on the interaction
MRNIFKRNQEPIVAPATTTATMPLAPAAPADNSTESTGTGESQEDMFAKLKDKFFNEINKIPLPPWALIAMAVVAGLLLLTCCFCICKKCCCKKKKNKKEKGKGMKNAMNMKDMKGGQDDDDAETGLTEGEGEGEEEKEPENLGKLQFSLDYDFQANQLTVGVLQAAELPALDMGGTSDPYVKVFLLPDKKKKYETKVHRKTLNPAFNETFTFKVPYQELGGKTLVMAIYSFDRFSKHDIIGEVKVPMNTVDLGQPIEEWRDLQGGEKEEPEKLGDICTSLRYVPTAGKLTVCILEAKNLKKMDVGGLSDPYVKIHLMQNGKRLKKKKTTVKKKTLNPYFNESFSFEIPFEQIQKVQVVVTVLDYDKLGKNEAIGKIFVGSNATGTELRHWSDMLANPRRPIAQWHSLKPEEEVDALLGKNK [D231S]	decreasing interaction
